Experimental data from PMC6743065, “Structural and functional characterization of the mitochondrial complex IV assembly factor Coa6” (Life Science Alliance, 2019).
Where a chain is given by its changes, count along the chain named. Numbers in names are those of the source.

B1: pathogenic mutant protein ^W59CCoa6 (natural protein, human)
chain: GPLGSMAAPSMKERQVCCGARDEYWKCLDENLEDASQCKKLRSSFESSCPQQWIKYFDKRRDYLKFKEKFEAGQFEPSETTAKS
notes: five residues left at the N terminus after cleavage of the GST tag with PreScission Protease; Coa6, human; residues 47-125 of the full-length Coa6 isoform 1 (UniProtKB Q5JTJ3) with the patient mutation W59C; In the crystal, Cys59 of each chain is joined by an intermolecular disulfide to Cys59 of another chain; not shown: GST, N-terminal, cleaved
B2: human wild-type Coa6 (^WTCoa6) (natural protein)
chain: B1 chain with C18W
notes: five residues left at the N terminus after cleavage of the GST tag with PreScission Protease; Coa6, human; isoform 3, composed of residues 47-125 of the full-length Coa6 isoform 1 (UniProtKB Q5JTJ3); the N-terminal residue is numbered Met47; Fully oxidized: intramolecular disulfides Cys58-Cys90 and Cys68-Cys79; also called Coa6 isoform 3; not shown: GST, N-terminal, cleaved
B3: ^Y104ACoa6 (natural protein, human)
chain: B1 chain with C18W, Y63A
notes: five residues left at the N terminus after cleavage of the GST tag with PreScission Protease; Coa6, human; residues 47-125 of the full-length Coa6 isoform 1 (UniProtKB Q5JTJ3), mutation introduced into the ^WTCoa6 ORF; not shown: GST, N-terminal, cleaved
B4: ^Y97ACoa6 (natural protein, human)
chain: B1 chain with C18W, Y56A
notes: as for B3
B5: ^R101ACoa6 (natural protein, human)
chain: B1 chain with C18W, R60A
notes: as for B3
B6: ^Y97A/Y104ACoa6 (natural protein, human)
chain: B1 chain with C18W, Y56A, Y63A
notes: five residues left at the N terminus after cleavage of the GST tag with PreScission Protease; Coa6, human; residues 47-125 of the full-length Coa6 isoform 1 (UniProtKB Q5JTJ3), mutations introduced into the ^WTCoa6 ORF; not shown: GST, N-terminal, cleaved

Biological target: the molecule itself
Experiment: crystal structure; ^W59CCoa6 25 mg/ml in 20 mM Tris-MES pH 8.0, 150 mM NaCl; crystallized with 0.1 M Bis-Tris pH 5.7, 0.23 M MgCl2, 29% PEG 3350, 20°C; 2.2 Å; four molecules per asymmetric unit

Row | Protein | binding result
1 | B1 | binds

Biological target: the molecule itself
Experiment: SEC; analytical SEC, Superdex 200 Increase 3.2/300, 100 μg protein, 20 mM Tris-MES pH 8.0, 150 mM NaCl, 0.05 ml/min; elution volumes compared with that of ^WTCoa6

Row | Protein | stoichiometry N
2 | B2 | 2
3 | B3 | 2
4 | B4 | 2
5 | B5 | 2
6 | B6 | 2
